PMC10917881, “Biochemical characterization of L-asparaginase isoforms from Rhizobium etli—the boosting effect of zinc” (Frontiers in Chemistry, 2024)

Tests used:
[1] = substrate: C=CC(N)=O; assay: ITC, Michaelis-Menten fit; format: biochemical, Rhizobium etli; settings: possible substrate only: heat signal, product not confirmed by Nessler, protein adduct not excluded; fit before product inhibition / inactivation
Text: ITC, Michaelis-Menten fit on ReAIV | after acrylamide injection into the reaction cell containing ReAIV, but not ReAV

[2] = substrate: NC(=O)C[C@H](N)C(=O)O; assay: ITC multiple injection method (heat-rate); format: biochemical, Rhizobium etli; settings: 10 mM Tris-HCl pH 9.0, 37°C, with optimal 1 µM Zn2+ (metal cofactor)
Text: ITC multiple injection method (heat-rate) on ReAIV

[3] = substrate: NC(=O)C[C@H](N)C(=O)O; assay: ITC multiple injection method (heat-rate); format: biochemical, Rhizobium etli; settings: Tris-HCl pH 9.0, 37°C
Text: ITC multiple injection method (heat-rate) on ReAV

purified protein = substrate: NC(=O)C[C@H](N)C(=O)O; assay: purified protein; settings: 10 mM Tris-HCl pH 9.0, 37°C, with optimal Zn2+ (metal cofactor)
[4] = with optimal 2.5 µM Zn2+ (metal cofactor)

B1: ReAIV (Rhizobium etli CFN 42) (protein)
chain: MTNPVTVEVTRGLLVESRHRGAVAVVDGDGKLFFSLGDIDTAVFPRSACKAMQALPLVESGAADAYGFGDKELALACASHNGEEEHVALAASMLSRAGRNVEALECGAHWSMNQKVLIQQARSLDAPTALHNNCSGKHAGFICACCHRDIDPKGYVGYEHPLQVEIRAVMERLTGAVLGAESCGTDGCSIPTYAMPLRNLAHGFARMATGTGLEPLRAKASRRLIEACMAEPFYVAGSGRACTKLMQIAPGRIFVKTGAEGVFCAAIPEKGIGISLKSEDGATRAAEAMVAATLARFFETEETVHAALMAFAAMPMRNWNGIHVGDIRATSVFSA
notes: full length, 335 residues; N-terminal 6xHis tag cut off by TEV (pET151D); E. coli BL21 Gold (DE3); homodimer
- Km [1]: 5500 µM
- kcat [1]: 12.6 s⁻¹
- Km [2]: 1500 ± 100 µM
- kcat [2]: 770 ± 17 s⁻¹
- kcat/Km [2]: 526000 ± 34000 M⁻¹ s⁻¹

B2: ReAV (Rhizobium etli CFN 42) (protein)
chain: MTPSEDFVVTDRGGIVENSHRVHAAVVDAKGRLLYALGNPTRMTLARSAAKPAQALAILETEGVAGYGFDDADIALMCASHSSEDRHIARTRAMLSKIKAEEADLRCGGHPSLSEMVNRSWIKQDFIPTAVCSNCSGKHVGMLAGARAIGAGTDGYHLPDHPMQGRVKRTVAELCDLDAGDVEWGTDGCNLPTPAFPLDRLGRIYAKLASAADGSDAGEGQSTRCAALAHIFRAMARHPEMVAGEGRYCTMLMRAFDGALVGKLGADASYAIGVRASDATRQLGTDGALGISVKIEDGNLEMLYAVVTELLERLGIGSPDVRSQLASFHHPQRVNTMGVTTGGVSFPFKLRGSKSNVDDPRLAAVAR
notes: full length, 367 residues; N-terminal 6xHis tag cut off by TEV (pET151D); E. coli BL21 Gold (DE3); homodimer
- Km [3, 4]: 2100 ± 200 µM
- kcat [3, 4]: 603 ± 24 s⁻¹
- kcat/Km [3, 4]: 294000 ± 31000 M⁻¹ s⁻¹

B3: ReAIV (Rhizobium etli CFN 42; K137A) (protein)
chain: MTNPVTVEVTRGLLVESRHRGAVAVVDGDGKLFFSLGDIDTAVFPRSACKAMQALPLVESGAADAYGFGDKELALACASHNGEEEHVALAASMLSRAGRNVEALECGAHWSMNQKVLIQQARSLDAPTALHNNCSGAHAGFICACCHRDIDPKGYVGYEHPLQVEIRAVMERLTGAVLGAESCGTDGCSIPTYAMPLRNLAHGFARMATGTGLEPLRAKASRRLIEACMAEPFYVAGSGRACTKLMQIAPGRIFVKTGAEGVFCAAIPEKGIGISLKSEDGATRAAEAMVAATLARFFETEETVHAALMAFAAMPMRNWNGIHVGDIRATSVFSA
- Km (purified protein): 2300 ± 100 µM
- kcat (purified protein): 158 s⁻¹
- kcat/Km (purified protein): 70000 M⁻¹ s⁻¹

B4: ReAV (Rhizobium etli CFN 42; K138A) (protein)
chain: MTPSEDFVVTDRGGIVENSHRVHAAVVDAKGRLLYALGNPTRMTLARSAAKPAQALAILETEGVAGYGFDDADIALMCASHSSEDRHIARTRAMLSKIKAEEADLRCGGHPSLSEMVNRSWIKQDFIPTAVCSNCSGAHVGMLAGARAIGAGTDGYHLPDHPMQGRVKRTVAELCDLDAGDVEWGTDGCNLPTPAFPLDRLGRIYAKLASAADGSDAGEGQSTRCAALAHIFRAMARHPEMVAGEGRYCTMLMRAFDGALVGKLGADASYAIGVRASDATRQLGTDGALGISVKIEDGNLEMLYAVVTELLERLGIGSPDVRSQLASFHHPQRVNTMGVTTGGVSFPFKLRGSKSNVDDPRLAAVAR
notes: as for B2
- Km ([3]; with optimal Zn2+ (metal cofactor)): 500 ± 100 µM
